According to patent US20220002410A1 (Merck Sharp & Dohme, published 2022):

Target: MK-3475-596 (MK-3475 derivatized with fluorescent dye Dylight-596) (Dylight-596 amine-reactive dye, reacts preferentially with the primary amine of lysine residues (sites not given))
Test: FRET between Dylight-488 labelled Ab6 and Dylight-596 labelled MK-3475, recorded for 72 hours (ex 488 nm, em 620 nm)
Experimental: Dylight-488® or Dylight-596® are amine-reactive dyes, which react preferentially with the primary amine of lysine residues. […] Due to the sensitivity of the assay, the molar concentration of the fluorogenic tagged proteins is either 3.2 uM or 800 nM depending on the protein ratio. FRET fluorescence signals are recorded for 72 hours at λₑₘ=620 nm (λₑₓ=488 nm) (FIG. 49).
If protein interaction occurs, we expect to see a growth of the fluorescence signal as a function of time (FIG. 49). The interaction is evaluated by the rate of growth of the fluorescence and the maximum of the fluorescence signal. The absence of interaction (or a reduced interaction) is characterized by i) a low rate of the growth of the fluorescence signal, and ii) a low plateau maximal. […] The fluorescence baseline is measured in the absence of labeled protein.

MK-3475-596 (MK-3475 derivatized with fluorescent dye Dylight-596) (Dylight-596 amine-reactive dye, reacts preferentially with the primary amine of lysine residues (sites not given)), sequence (VH, as listed by the source, chain 1 of 2): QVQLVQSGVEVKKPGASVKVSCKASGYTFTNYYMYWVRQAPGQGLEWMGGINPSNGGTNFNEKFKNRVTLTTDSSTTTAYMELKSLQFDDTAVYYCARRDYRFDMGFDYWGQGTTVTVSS
MK-3475-596 (MK-3475 derivatized with fluorescent dye Dylight-596) (Dylight-596 amine-reactive dye, reacts preferentially with the primary amine of lysine residues (sites not given)), sequence (VL, as listed by the source, chain 2 of 2): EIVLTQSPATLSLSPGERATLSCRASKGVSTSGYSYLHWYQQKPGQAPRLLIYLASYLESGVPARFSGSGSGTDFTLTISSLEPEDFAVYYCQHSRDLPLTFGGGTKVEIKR

B1: Ab6-488 (Ab6 derivatized with fluorescent dye Dylight-488) (antibody, human IgG4 S228P, kappa, V domains shown)
VH: QMQLVQSGPEVKKPGTSVKVSCKASGYTFTDYNVDWVRQARGQRLEWIGDINPNDGGTIYAQKFQERVTITVDKSTSTAYMELSSLRSEDTAVYYCARNYRWFGAMDHWGQGTTVTVSS
VL: DIVMTQTPLSLSVTPGQPASISCKASQSLDYEGDSDMNWYLQKPGQPPQLLIYGASNLESGVPDRFSGSGSGTDFTLKISRVEAEDVGVYYCQQSTEDPRTFGGGTKVEIKR
modifications: Dylight-488 amine-reactive dye, reacts preferentially with the primary amine of lysine residues (sites not given)
B1: no binding.
